From patent publication US11369662B2 (The Medical College of Wisconsin, Inc., priority 2014, dated 2022) come the findings set out here.

The target in experiment [1] is T1, CXCR4 (Homo sapiens, UniProt P61073).
T1 construct: purchased Millipore
Nature of the experiment: Confocal microscopy of CXCR4 Ser324/Ser325 phosphorylation in HeLa cells. In kind it is cell-based. As to conditions: HeLa cells with HA-CXCR4-YFP, 80 ng/ml, 15 min. As to the method:
Connfocal microscopy. HeLa cells transiently transfected with HA-CXCR4-YFP were passaged onto poly-L-lysine coated coverslips and grown for 24 h. The next day, cells were washed once with warm DMEM containing 20 mM HEPES, pH 7.5, and incubated in the same medium for 3-4 h at 37° C. […] Cells were then fixed with PBS containing 3.7% paraformaldehyde, followed by permeabilization with 0.05% (w/v) saponin for 10 min, similar to a protocol we have described previously. Cells were then incubated with 1% goat serum in 0.05% saponin-PBS for 30 min at 37° C., followed by staining with […] monoclonal antibody that recognizes dually phosphorylated CXCR4 on serine residues 324 and 325 (clone 5E11) (1:50 dilution) for 1 h at 37° C. […] Samples were analyzed using an LSM 510 laser scanning confocal microscope (Carl Zeiss, Thornwood, N.Y.) equipped with a Plan-Apo 63×/1.4 oil lens objective. […] Acquired images were analyzed using ImageJ, version 1.41o software (National Institutes of Health, Bethesda, Md.) and Adobe Photoshop (CS4).
Confocal microscopy. […] Samples were analyzed using an LSM 510 laser scanning confocal microscope (Carl Zeiss, Thornwood, N.Y.) equipped with a Plan-Apo 63×/1.4 oil lens objective. […] Acquired images were analyzed using ImageJ, version 1.410 software (National Institutes of Health, Bethesda, Md.) and Adobe Photoshop (CS4).

Experiment [2] has as its target T1, CXCR4. The experiment is described as follows: CXCR4 degradation assay in HeLa cells. In kind it is cell-based. The following applies: 80 ng/ml, 3 h, compared to vehicle. As to the method:
CXCR4 degradation assay. HeLa cells grown on 6-cm dishes were washed once and incubated with DMEM containing 10% FBS and 50 μg/ml cyclohexamide for 15 min at 37° C. […] Cells were washed once and collected in 300 μl 2× sample buffer. Receptor levels were determined by SDS-PAGE followed by immunoblotting using an anti-CXCR4 antibody. Blots were stripped and reprobed for actin to assess loading. Receptor levels normalized to actin levels were determined by densitometric analysis.
CXCR4 degradation assay. HeLa cells grown on 6-cm dishes were washed once and incubated with DMEM containing 10% FBS and 50 μg/ml cyclohexamide for 15 min at 37° C. […] Cells were washed once and collected in 300 μl 2×sample buffer. Receptor levels were determined by SDS-PAGE followed by immunoblotting using an anti-CXCR4 antibody. Blots were stripped and reprobed for actin to assess loading. Receptor levels normalized to actin levels were determined by densitometric analysis.

The target of experiment [3] is T1, CXCR4. Nature of the experiment: CXCR4 ubiquitination assay in HEK293 cells stably expressing HA-CXCR4. As to conditions: HEK293 HA-CXCR4 with FLAG-ubiquitin, 80 ng/ml, 30 min. It counts as cell-based. How it is done: (§1) CXCR4 ubiquitination assays. HEK293 cells stably expressing HA-CXCR4 grown on 10-cm dishes were transfected with 3 μg FLAG-ubiquitin. The next day, cells were passaged onto 6-cm dishes and allowed to grow for an additional 24 h. […] Cells were then washed once on ice with cold PBS, and collected in 1 ml lysis buffer [50 mM Tris-Cl, pH 7.4, 150 mM NaCl, 5 mM EDTA, 0.5% (w/v) sodium deoxycholate, 1% (v/v) NP-40, 0.1% (w/v) SDS, 20 mM N-ethyCXCL121aleimide (NEM), and 10 μg/ml each of leupeptin, aprotinin, and pepstatin A]. Samples were transferred into microcentrifuge tubes and placed at 4° C. for 30 min, followed by sonification and centrifugation to pellet cellular debris. Clarified cell lysates were incubated with an anti-HA polyclonal and isotype control antibodies and the immunoprecipitates were analyzed by SDS-PAGE followed by immunoblotting using an anti-FLAG antibody conjugated to HRP.
as §1, with “Tris-CI,” for “Tris-Cl,”

The test system of experiment [4] is KG1a cells. Nature of the experiment: Apoptosis assays in KG1a cells expressing CXCR4-YFP. The following applies: for cleavage of PARP: 100 ng/ml. It counts as cell-based, human. As to the method:
Apoptosis assays. KG1a (human acute myelogenous leukemia) cells were assayed for CXCL12-dependent apoptosis as previously described. Briefly, CXCR4 expression on KG1a cells was achieved via transient transfection with a plasmid encoding a CXCR4-YFP fluorescent fusion protein. […] Apoptosis was assayed by staining cells with APC-conjugated annexin V to detect cell-surface phosphatidyl serine (BD Biosciences) or Alexaflour-647-conjugated antibody to detect cleaved PARP (BD Biosciences), and the percentage of YFP+ cells undergoing apoptosis was determined by flow cytometry.

T1 sequence (P61073 whole entry): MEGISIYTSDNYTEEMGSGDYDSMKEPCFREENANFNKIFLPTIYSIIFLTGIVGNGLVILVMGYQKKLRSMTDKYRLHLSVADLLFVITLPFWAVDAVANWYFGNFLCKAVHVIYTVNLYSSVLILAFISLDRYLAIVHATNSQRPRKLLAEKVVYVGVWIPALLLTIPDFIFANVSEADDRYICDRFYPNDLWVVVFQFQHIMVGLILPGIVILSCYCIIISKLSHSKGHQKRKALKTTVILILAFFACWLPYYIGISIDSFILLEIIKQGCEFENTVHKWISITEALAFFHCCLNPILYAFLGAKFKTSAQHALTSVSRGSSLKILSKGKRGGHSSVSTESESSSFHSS

Take “CXCL12WT: wild type CXCL12 (stromal cell-derived factor-1/SDF-1), SEQ ID NO:1”: the “staining for CXCR4 phosphorylated on Ser324 and Ser325” value in experiment [1] is “strong staining”. The CXCR4 degradation entry in experiment [2] was “approximately 60%”. Besides, the CXCR4 ubiquitination result is reported as “prompted ubiquitin” in experiment [3] and “promoted ubiquitination of CXCR4” in experiment [3] (listed as CXCL12). Also, the “cleavage of PARP” value in experiment [4] is on record as “significantly greater than CXCL122”. The EC50 in experiment [4] (16-18 h, read-out: EC50 of increase in annexin V) was 1.75 ± 0.6 nM.

For “CXCL122: constitutively dimeric variant of CXCL12 containing L36C/A65C mutations”, the “staining for CXCR4 phosphorylated on Ser324 and Ser325” value in experiment [1] is listed as “weak staining similar to vehicle”. Moreover, the CXCR4 degradation in experiment [2] was ~15%. Further, the CXCR4 ubiquitination entry in experiment [3] is listed as “failed to promote CXCR4 ubiquitination”. The “cleavage of PARP” value in experiment [4] is “enhanced the cleavage of PARP”. Further, the “increase in annexin V” value in experiment [4] (16-18 h) is on record as “small but significant increase”.

One may read the EC50 as the midpoint of the concentration-response curve.
